For assay [1], the target named is T1, phyBN (residues 1‒908 of phyB) (Arabidopsis, UniProt P14713 1-908, PΦB chromophore covalently bound).
T1 construct: Arabidopsis phytochrome B, residues 1-908 (HKRD truncated); also called phyBN-Pfr (red light-irradiated); source: E. coli BL21(DE3), co-expressed with HO1 and HY2, purified; not shown: 3× Flag, N-terminal, kept
T1 sequence (looked up): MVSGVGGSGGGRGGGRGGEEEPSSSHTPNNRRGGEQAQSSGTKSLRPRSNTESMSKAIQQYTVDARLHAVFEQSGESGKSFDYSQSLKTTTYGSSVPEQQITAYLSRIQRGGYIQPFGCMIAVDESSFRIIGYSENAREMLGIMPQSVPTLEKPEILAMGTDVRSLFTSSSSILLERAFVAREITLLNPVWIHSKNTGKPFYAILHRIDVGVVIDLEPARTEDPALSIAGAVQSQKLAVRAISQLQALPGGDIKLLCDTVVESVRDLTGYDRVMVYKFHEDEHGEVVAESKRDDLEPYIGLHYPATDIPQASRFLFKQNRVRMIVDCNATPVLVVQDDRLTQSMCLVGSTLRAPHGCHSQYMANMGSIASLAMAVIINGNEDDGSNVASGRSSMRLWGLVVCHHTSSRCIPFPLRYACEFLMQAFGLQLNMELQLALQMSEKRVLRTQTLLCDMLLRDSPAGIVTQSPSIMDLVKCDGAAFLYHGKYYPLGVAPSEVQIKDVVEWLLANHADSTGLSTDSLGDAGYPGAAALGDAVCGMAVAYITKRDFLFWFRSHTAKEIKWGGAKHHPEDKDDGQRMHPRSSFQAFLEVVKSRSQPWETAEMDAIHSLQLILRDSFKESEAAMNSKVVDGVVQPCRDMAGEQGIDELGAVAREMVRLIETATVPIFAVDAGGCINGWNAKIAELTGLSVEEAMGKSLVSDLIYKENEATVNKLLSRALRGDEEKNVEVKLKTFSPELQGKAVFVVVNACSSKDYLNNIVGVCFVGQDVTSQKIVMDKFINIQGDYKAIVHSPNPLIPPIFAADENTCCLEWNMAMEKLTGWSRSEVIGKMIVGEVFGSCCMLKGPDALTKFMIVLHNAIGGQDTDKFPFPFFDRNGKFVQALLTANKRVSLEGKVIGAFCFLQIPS
As to the kind of experiment: pull-down; StrepII-tagged PIF6N (1-64) and its mutants used to pull down Flag-tagged phyBN (Pfr) and its site-directed mutants; SDS-PAGE with Coomassie and zinc-induced fluorescence. As to conditions: both partners purified.

The target in assay [2] is T2, phytochrome B (phyB), full length (1‒1172) (Arabidopsis, UniProt P14713 1-1172, PΦB chromophore covalently linked to C357).
T2 construct: Arabidopsis phytochrome B, residues 1-1172, At2g18790; The same protein is Pr in the dark and Pfr after red light; The purification uses Ni-NTA, but no His tag on phyB is described; also called wild-type phyB; phyB-Pr (dark); source: E. coli BL21(DE3), co-expressed with HO1 and HY2, purified (Ni-NTA, anti-FLAG resin, Source Q); not shown: 3× Flag ([residues removed]), N-terminal, kept
T2 sequence (looked up): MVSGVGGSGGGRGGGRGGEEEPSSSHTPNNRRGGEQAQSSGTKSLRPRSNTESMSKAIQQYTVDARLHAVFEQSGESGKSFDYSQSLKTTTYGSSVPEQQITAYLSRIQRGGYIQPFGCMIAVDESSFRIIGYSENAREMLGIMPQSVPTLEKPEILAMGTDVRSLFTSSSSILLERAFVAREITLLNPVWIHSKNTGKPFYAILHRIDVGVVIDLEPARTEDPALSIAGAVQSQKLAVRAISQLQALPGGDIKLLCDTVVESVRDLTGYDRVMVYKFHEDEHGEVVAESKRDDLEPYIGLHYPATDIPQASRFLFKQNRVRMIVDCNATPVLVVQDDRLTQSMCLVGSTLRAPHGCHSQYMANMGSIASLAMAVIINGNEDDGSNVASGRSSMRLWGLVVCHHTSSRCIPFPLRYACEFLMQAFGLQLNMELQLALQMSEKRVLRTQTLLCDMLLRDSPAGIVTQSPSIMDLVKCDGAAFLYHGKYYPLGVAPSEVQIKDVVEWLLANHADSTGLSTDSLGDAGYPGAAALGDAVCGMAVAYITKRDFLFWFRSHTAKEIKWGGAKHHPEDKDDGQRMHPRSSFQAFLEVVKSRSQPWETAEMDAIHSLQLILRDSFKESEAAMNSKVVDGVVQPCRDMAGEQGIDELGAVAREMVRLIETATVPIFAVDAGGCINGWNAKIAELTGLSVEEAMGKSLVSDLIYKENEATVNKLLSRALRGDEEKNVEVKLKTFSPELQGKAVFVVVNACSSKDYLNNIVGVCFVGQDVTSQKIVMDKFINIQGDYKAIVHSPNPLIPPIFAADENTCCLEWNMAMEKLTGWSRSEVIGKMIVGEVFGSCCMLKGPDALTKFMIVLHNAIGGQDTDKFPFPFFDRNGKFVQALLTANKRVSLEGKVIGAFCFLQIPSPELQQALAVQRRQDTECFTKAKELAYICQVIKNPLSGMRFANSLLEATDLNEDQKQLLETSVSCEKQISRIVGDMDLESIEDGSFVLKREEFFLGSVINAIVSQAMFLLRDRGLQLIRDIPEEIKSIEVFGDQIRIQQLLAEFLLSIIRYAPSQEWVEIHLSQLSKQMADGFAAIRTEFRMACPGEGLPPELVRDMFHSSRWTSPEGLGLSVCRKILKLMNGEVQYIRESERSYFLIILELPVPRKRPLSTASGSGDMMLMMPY
As to the kind of experiment: SEC; Superose 6 Increase 10/300 GL; 25 mM Tris-HCl pH 8.0, 150 mM NaCl, 5 mM DTT; red light-irradiated phyB; peak fractions on SDS-PAGE. The note with it: both partners purified. A general note: SEC sorts molecules by how far they enter the pores of the column.

Results on one molecule are retold here after article PMC12098889, “Structural insight into PIF6-mediated red light signal transduction of plant phytochrome B” (Cell Discovery, 2025).

B1: PIF6N (1‒64) (domain or fragment, Arabidopsis, UniProt Q8L5W7 1-64, looked up)
chain: MMFLPTDYCCRLSDQEYMELVFENGQILAKGQRSNVSLHNQRTKSIMDLYEAEYNEDFMKSIIH
notes: Arabidopsis PIF6, residues 1-64 (methods of the pull-down); the legends call PIF6N residues 1-60 and the results R11-S60; Probably in the modified pET15b vector (N-terminal His6, C-terminal StrepII) like the other PIFNs; also called N-terminus of PIF6β; source: E. coli BL21(DE3), purified
Consider B1, for which the binding result in assay [1] and in assay [2] was “binds” throughout.
